The data set deals with the molecule itself. Nature of the data set: SDS-PAGE of deoxycholate-induced oligomers.

This note sets out measurements from article PMC11043418, “Bacillus velezensis iturins inhibit the hemolytic activity of Staphylococcus aureus” (Scientific Reports, 2024).

B1: alpha-hemolysin (natural protein)
chain: ADSDINIKTGTTDIGSNTTVKTGDLVTYDKENGMHKKVFYSFIDDKNHNKKLLVIRTKGTIAGQYRVYSEEGANKSGLAWPSAFKVQLQLPDNEVAQISDYYPRNSIDTKEYMSTLTYGFNGNVTGDDTGKIGGLIGANVSIGHTLKYVQPDFKTILESPTDKKVGWKVIFNNMVNQNWGPYDRDSWNPVYGNQLFMKTRNGSMKAADNFLDPNKASSLLSSGFSPDFATVITMDRKASKQQTNIDVIYERVRDDYQLHWTSTNWKGTNTKDKWTDRSSERYKIDWEKEEMTN
notes: also called α-hemolysin; Hla
On to B1, for which the stoichiometry N (commonly a count of units in the complex or per binding partner) is 7.
